We go through three molecules from US5876971A, “Thrombin inhibitor from the saliva of protostomia” (Schering Aktiengesellschaft, priority 1992, dated 1999).

The test system of assay [1] is thrombin. Briefly: Inhibition of the thrombin activity in the amidolytic test (substrate S2238). Format: biochemical. The note with it: inhibitor 6 nmol/l; thrombin 0.03 IU. As for the experimental part:
Inhibition of the thrombin activity in the amidolytic test
In a microtiterplate, 80 μl of 100 mmol/l of tris/HCl, pH 7.4; 150 mmol/l of NaCl and 0.03 IU ([…]) of thrombin and 100 μl of a diluted solution of the protein of the invention (32-630 ng) are incubated for 10 minutes at 37° C. and then mixed with 100 μl (50 nmol) of substrate S2238 (Kabi Vitrum). After an incubation of 30 minutes at 37° C., the absorption is measured at 405 nm. 630 ng (117 nmol/l) inhibits the activity of the thrombin to approximately 50%. […] (See FIG. 2)

Assay [2] relates to thrombin. Briefly: Inhibition of the thrombin activity in the clotting test (fibrinogen cleavage). Format: biochemical. The method, then: Inhibition of the thrombin activity in the clotting test
In a microtiterplate, which is coated with bovine serum albumin (0.1% in 0.1 mol/l of NaHCO3, pH 9.5), 80 μl of 20 mmol/l of HEPES, pH 7.4; […] of NaCl; 20 μl of 20 mmol/l of CaCl2; 100 μl of a diluted solution of the protein of the invention (5-50 ng) and 20 μl of thrombin (0.03 IU=0.03 International Units) are pipetted. After an incubation of 2 minutes at 37° C., 100 μl of fibrinogen (5 mg/ml) is added and incubated for 40 minutes at 37° C. Then, the absorption is measured at 405 nm. […] (See FIG. 3)

The target of assay [3] is thrombin.
Assay [4] addresses thrombin. The source holds these as a separate data set.
Assay [5] has as its target thrombin. The source holds these as a separate data set.
For assay [6], the target named is thrombin. The source holds these as a separate data set.

Take hirudin: in assay [1], the “inhibition of thrombin activity in the amidolytic test” value is on record as 85%. For the same molecule, the “inhibition of fibrinogen cleavage (clotting)” value in assay [2] (inhibitor 8 nmol/l (45 ng), thrombin 0.03 IU (1.27 nmol/l), absorption at 405 nm) is “complete inhibition”.

Consider “thrombin inhibitor purified from the saliva of Triatoma pallidipennis (protein of the invention, purified according to Example 1)”, for which the lengthening of the thrombin time (plasma clotting after adding thrombin) in assay [3] stood at 35 nmol/L. In addition, the inhibition of thrombin-induced blood platelet aggregation (aggregometer) in assay [4] came to 15 ng/mL. The inhibition of the thrombin activity in the clotting test (fibrinogen cleavage, absorption at 405 nm) in assay [5] was found to be 8 nmol/L. Also, the inhibition of the thrombin activity in the amidolytic test (substrate S2238, absorption at 405 nm); concentration giving approximately 50% inhibition in assay [6] is 117 nmol/L.

B1: purified fraction: recombinant mature protein (Ti28=seq. id. no. 2) produced in E. coli, purified by ion exchange and thrombin affinity chromatography (protein)
chain: AEGDDCSLEKAMGDFKPEEFFNGTWYLAHGPDVTSPAVCQKFTTSGSKGFTQIVEIGYNKFESNVKFQCNQVDNKNDEQYSFKCKGSDNTEFEADFTFISVSYDNFALVCRSIIFTSQPKEDDYLVFERTKSDTDPDANEIC
Regarding B1, the “inhibition of thrombin activity in the clotting test (qualitative)” value in assay [2] (material from transformed E. coli, concentration not given) is given as “same inhibitory activity as the saliva protein”.
